Results from publication PMC9599533.

Molecular target: α-subunit of the M. tuberculosis open gate 20S core particle (M. tuberculosis) (UniProt P9WHU1)
Experiment: cryo-EM structure

Substance: α-subunit of the M. tuberculosis open gate 20S core particle (from UniProt P9WHU1 9-248) (domain or fragment)
- stoichiometry N: 7
